In the nanobody polyreactivity screen of Harvey et al. (2022):

Assay: yeast display, Sf9 membrane polyspecificity reagent, FACS + sequencing; frameworks hold sequencing errors
How it was run: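 After 36–48 hours of galactose induction, yeast (Saccharomyces cerevisiae BJ5465) displaying a synthetic nanobody library were stained at 4 °C for 1 hour with 10% biotinylated, detergent-solubilized Sf9 membrane reagent. Streptavidin microbeads enriched the stained cells before FACS sorting into low and high (top ~1%) gates on anti-HA and streptavidin fluorescence. Each clone's polyreactivity label reflects its gate of origin.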

Sequence | polyreactivity (PSR sort gate)
QVQLVESGGGLVQAGGSLRLSCAASGFTFLFNAMGWYRQAPGKERELVADITWSGGSTYYADSVKGRFTISRDNAKNTVYLQMNSLKPEDTAVYYCAASDDWSTPIYYYSVFDYDYWGQGTQVTVSS | high polyreactivity
QVQRVESGGGLVQAGASLRLSCSASGRTFSRYAMGWYRQAPGKERELVAAIRGNSGNTYYADSVKGRFTISRDNAKNTVYLQMNSLKPEDTAVYYCAKPFNIWGQGTQVTVSS | high polyreactivity
QVQLVESGGGLVQAGGSLRLSCAASGRTFFANAMGWYRQAPGKERELVAAITSNTGTTYYADSVKGRFTISRDNAKNTVYLQMNSLKPEDTAVYYCAARYTFRYEYWGQGTQVTVSS | high polyreactivity
QVQLVESGGGLVQAGGSLSLSCAASGLIFYYYAMGWYRQAPGKERELVAAISGSGGSTYYADSVKGRFTISRDNAKNTVYLQMNSLKPEDTAVYYCAAESQYTYGYGYWGQGTQVTVSS | high polyreactivity
QVQRVESGGGLVQAGGSLRLSCAASGRILYWYAMGWYRQAPGKERELVAGIDWSGGSTYYADSVKGRFTISRDKAKTTVYLQMNSLKPEDTAVYYCNAAQNRGRGSHRGESTYYYSGQGTQVTVSS | low polyreactivity
QVQLVESGGGLVQAGGSLRLSSAASGRTFIVYAMGWYRQQPGKERELVARISSGSRTSYADSVKGRFTISRDNAKNTVYLQMNSLKPEDTAVYYCAKSRVIKYEFDYWGQGTQVTVSS | low polyreactivity
QVQLVESGGGLVQAGGSIRLSCAASGITFGRNTMGWYRQAPAKERELVAAIDSGGNTYADSVKGRFTISRDNAKNTVYLQMNSLKPEDTAVYYCAVDGYYLYYDYDYWGQGTQVTVSS | low polyreactivity
QVQLVESGGGLVQAGGSLRLSCAASGRIIYVKAMGWYRQAPGKERELVAAISSRGGTTYYADSVKGRFTISRDNAKNSVYLQMNSLKPEDTAVYYCNAGRVRHGNDYWGQGTQVTVSS | high polyreactivity
QVQLVESGGGLVQAGGSLRLSCAASGIIFATNSMGWYRQAPGKERELVAAITSDSTNYADSVKGRFTISRDNAKNTVYLQMNSLKAEDTAVYYCAADLITDYEESDYWGQGTQVTVSS | low polyreactivity
QVQLVESGGGLVQAGGSLRLSCAASGFTLYYYAMGWYRQAPGKERELVAAISTRGGRTYYADSVKGRFTISRDNAKNTVYLQINSLKPEDTAVYYCAAAFSLKSLNTRWTWSRYYYWGQGTQVTVSS | high polyreactivity
QVQLVESVRGLVQAGGSLLLSCAASGITITHYDMGWYRHSSGKESELVAAITSSGRTYYADSVKGRFSLSRDNAKNTVYLQMNSLKPEDTAVYYCDAEHSWFYGLLGYWGQGTQVTVSW | high polyreactivity
QLQLVESGGGLVQAGGSLRLSCAASGSIFSFYAMGGYRQAPGKERELVATITYGSGSTHYADSVKGRFTISRDNAKNTVYLQLNSLKPEDSAVYYCAGETVRYEWGDSPAALFDYWGQGTQVTVSS | low polyreactivity
QVQLVESGGGLFQAGGSLRLSCSASGSIFKRYAMVWYRQAPGKERELVARITNRSGNTYYADSVKGRFTISRDNAKNTVYLQMISLKPEDSAVYYRAATKSLGRYYMYYWGQGTQVTVSS | low polyreactivity
QVQLVESGGGLVQAGGSLRLSCAASGRTFQDNAMVWYRQAPGKEREFVAAINNSGGNTYYADSVKGRFTISRDNAKNTVYLQMNSLKPEDTAVYYCNARHTWHQTYDYWGQGTQVTVSS | low polyreactivity
QVQLVESGGGLVQAGGSLRLSCAASGSTFTGYAMGWYRQAPGKEMELVAAISISGGRTVYADSVKGRFTISRDNAKNTVYLQMNSLKREDTAVYYCNARYTRYTLRYYYWGQGTQVTVSS | high polyreactivity
QVQLVQAGGGLVQAGGSLRLSSAPSGFTLYHYARGWYSQAPGKERQLVASITRSGASTYYPDSVKGRFTISRDNAKYTVYVQMNSLKPEDPAVYYCNKVRYTSSIWTYYDWGQGTQVTVSS | high polyreactivity
QVQLVESGGRLVQAGGSLRLSCAASGSIFALYAMGWYRQQPGKVRELVAAIRRGTSTKYADSVKGRFTISRDNAKNTVNLHMKSLKPEDTAVYYCNARYYYCSSISRWSDYWVQGTQVTVSS | high polyreactivity
QVQLVESGGGLVQAGGSLRLSCAASGRIFPVNAMGWYRQAPGKERELVATISSGDITNYADSVKGRFTISRDNAKNTVYLQMNSLKPEDTAVYYCAADYTWRAWTYYGIKYNYWGQGTQVTVSS | low polyreactivity
QVQLVESGGGLVQAGGSLRLSCAASGSTFHWYTMGWYRPAPGKESELVAAITSGTSTYYADSVKGRFTISRDNSKITVYLQMNSLKPEDTAVYYCNTEGVWSVYGLYDYWGQGTQVTVSS | low polyreactivity
QVQLVESGGGLVQAGGSLRLSCAASGSIFNYYAMGWSRQAPGKERELVAAITTSGGNTYYADSVKGRFTISRDNAKNNVYLQMNILKPEDTAVYYCNADYRQITSYGFDYWGQGSQVTVSS | low polyreactivity
QVQLVESGGGLVQAGGSLRLRCAASGLTFGVYPMGWYRQAPGKERELVAAISSSGGSTYYADSVKGRYTISRDYAKNTVYLHMNSLKPEDTAVYYCNAGRGTKYDYWGQGTQVTVSS | low polyreactivity
QVQLVESGGGLVQAGGSLRLICAASGFTFGEYAMGWYRQAPGKERDFVASISWDGASTYYADSVKGRFTISRDNAKNTVYLQMKSLKPEDTAVYYCAATRYYSFWGQGTQVTVSS | low polyreactivity
